In the DeepSol protein solubility set:

assay: soluble on expression in E. coli; label from the status in PepcDB or PDB records

Sequence | soluble on expression in E. coli
MGSDKIHHHHHHMYAAHPIKPLKAPKLKTQFLRRVFVGASIRRWNDQACPLEFVELDKQAHKAMIAYLLAKDLKDRGNDLDLDLLIKFFCFEFLERLVLTDIKPPIFYALQQTHSQELASYVVQSLQDEISMYFSLEELKEYLSHRPQILETQILESAHFYASKWEFDIIYHFNPNMYGVKEIKDKIDKQLHNNEHLFEGLFGEKEDLKKLVSMFGQLRFQKRWSQTPRVPQTSVLGHTLCVALMGYLLSFDLKACKSMRINHFLGGLFHDLPEILTRDIITPIKQSVAGLDHCIKEIEKKEMQNKVYSFVSLGVQEDLKYFTENEFKNRYKDKSNKIIFTKDAEELFTLYNSDEYLGVCGELLKVCDHLSAFLEAQISLSHGISSNDLIKGAQNLLELRSQTELLDLDLGKLFRDFK | not soluble
MGSDKIHHHHHHMTKNSETGHISEGGGILTRPDDATIAYRRLEGKTPGVVFLHGFHSDMEGSKALALEAMCQAQGRAFLRFDYFGHGKSSGDVALGTIGRWAADAVAVIGELTKGPQILVGSSLGGWIALLAALEMKDKVAGLVGVAAAPDFTEDLMWQDFTFEQRRTLMETGELELPNCHEPDNPWRIHRSLIEDGRNHLLLRDLIQIHCPVWLIQGQKDEDVPWQTALRLADCLASEQVEIVLVKDGDHRLSRDGDLIRLTNMVAAMLGMIQEL | not soluble
MDTQDPLSQKYAISMLFFLLDRGNVKQFELLKIISSNMTIEKLSKILEEAGLINIKREFTGRKSYSFSLTPKGRLVAEQLKKAEEIAQKPSAEIEESVEKIELLLANEEAERIREWSFLLHINIMDDHITEEISGKSPRFFNIYIKRNGNGEFLLWCEQDNSYDCWHVKAAWTYPEVQKMMMHYKGKVKICHICGYENAEEGKFCTNCGTKLE | not soluble
MNRYRQLAELFKTQIQQNTWRAGEKLPSVRVTSRNHSVSAGTVLQAYQLLEAQGWVAAKPQSGYFVTAELDRLEPSPPATSVYRSNINDELYDYLKNQASPDAMKFGSAFPDPALFPLDALNRNLASSGRKMGPETLLDNLPPGSESLRRLIAQRYIQQGMVLTHDDIVITSGALEALNLSLQAVTQPGDTIVVESPTFYGALQAIERLGLKAIEISVDPRIGHSLQQIEAAFTDHDVRACWLMTNFHNPTGMSLNDEQKQRIVELADKHDVYLIEDDVYSELYFSNKKPSSLRTFDTQDRVLHCGSFSKSLCPGYRLGWVVNKRFNEHLQKLQLISTLSGSAPIQQGIAHYLQNDSYDNHLRKLRKNLEQRQSTFIELIGKYFPKSIHYTQPEGGYFLWVELPESKCGKAIYQKLLEDNITVAFGKLFSVGTDYENYLRLNTSLPCNDELEEAVKTIGELLH | not soluble
MGSDKIHHHHHHMVNQGVDISVIAPQSITRHLLKGDPLLAVDSEKKIGNRSYHIYRPKYLTLGNAPRWIQNILEWLRYKVILRVITKHNLKPDAIYGHFWQNAFDIRKYCYKNGTPLFVACGEGDTALEDLVNSLSFAEKKRLSNAVTGVISVSSLNKRKCIEYGLSKAEDIVVLPNSVNSSLFSDINPLNRNSLGVFDDDFLIVFTGGFIHRKGASRLAAAIDKIGDKRIKVIFIGKPVPGDDATPHCNGIVHIGALEHDDIPSYLSAADVFCLPTLNEGCSNAIVEAIACGLPIISSNLPFNDDILDSSNALLVNPESVDDIASAIKQLMDNSDLRQKLAEGSKEKAKSLRIEFRAKKIIEFINRQMQK | not soluble
MTQHPFISRVAVRNYKSIGYCDVNLRPLTYLVGHNGAGKSNFMDALHFVCDALSYSLDSALNERGGINEVRRRSGGHPTHFALRVEFVMQSGQAGRYGFVIGALKNGGYEVQREECVVAGIGKGPFFRIEKGKLRDSSETTFPSVTADRLALVAASGLTAFRPVFDALTAMGFYNLNPKLMRELQKPQDGRLLRPAGENIASVIGHLEKVAPAQMALIQEYLHSVAPMVHGVERKPIGPMETLEFRQDMAGSKHPWRFLAQNMSDGTLRALGVLSALLQGNVDYSPTLIGIEEPETALHPAASAALREALVRASETTQVLVTSHSPDLLDDHSIDADAVLAVVSEAGETKVAPLDEGSRQVMRDHLFSAGELLRMNQLAPDRASLEQQDKAASGDLFGETESVLEHHHHHH | soluble
MMTVAAEIRGSNPEKLLAPVLSAFWDEDESWTLDVYRRHEGYEGLRKALAMAPDDLIAYVKESGLRGRGGAGFPTGMKWQFIPQGDGKPHYLVVNADESEPGTCKDIPLLFANPHSLIEGIVIACYAIRSSHAFIYLRGEVVPVLRRLHEAVREAYAAGFLGENILGSGLDLTLTVHAGAGAYICGEETALLDSLEGRRGQPRLRPPFPAVAGLYACPTVVNNVESIASVPAILNKGKDWFRSMGSEKSPGFTLYSLSGHVAGPGQYEAPLGITLRQLLDMSGGMRPGHRLKFWTPGGSSTPMFTDEHLDVPLDYEGVGAAGSMLGTKALQCFDETTCVVRAVTRWTEFYAHESCGKCTPCREGTYWLVQLLRDIEAGKGQMSDLDKLNDIADNINGKSFCALGDGAASPIFSSLKYFREEYEEHITGRGCPFDPAKSTAWADRTEVKALEHHHHHH | not soluble
MSGATPVFTEINQIQGTGDKSPLISSGFISDDEYFVQGVVTARGESLLKGFYLQGLNDDFDPNSSEGIFVSTGSAPSLEIQPGALVCVKAKVQEYYGQTQLKPDTNNFLVQGHQAPVSVTELTINENETLAQALERHEGMQVKLTSHSDLRITRNFSFDYASKRNNMVLSHGEPLFKPTQLFAAESPEAIQLAEENAKRQITIESDNKAPNGEVPYFPDFATDSNQDGSADSYLRLGARIEGLEGVIAYSYGQYRLVTTNTISQENIITQAFDEDGLEHHHHHH | soluble
MIKSALLVLEDGTQFHGRAIGATGSAVGEVVFNTSMTGYQEILTDPSYSRQIVTLTYPHIGNVGTNDADEESSQVHAQGLVIRDLPLIASNFRNTEDLSSYLKRHNIVAIADIDTRKLTRLLREKGAQNGCIIAGDNPDAALALEKARAFPGLNGMDLAKEVTTAEAYSWTQGSWTLTGGLPEAKKEDELPFHVVAYDFGAKRNILRMLVDRGCRLTIVPAQTSAEDVLKMNPDGIFLSNGPGDPAPDDYAITAIQKFLETDIPVFGICLGHQLLALASGAKTVKMKFGHHGGNHPVKDVEKNVVMITAQNHGFAVDEATLPANLRVTHKSLFDGTLQGIHRTDKPAFSFQGHPEASPGPHDAAPLFDHFIELIEQYRKTAK | soluble
MFGGDTLYELRCSLQLAETEREGGFSPHISPFTAVNDLGHLLGRAGFNTLTVDTDEIQVNYPGMFELMEDLKGMGESNCSWNRKALLHRDTMLAAAAVYREMYRNEDGSIPATFQIYHMIGWKYHDSQARPAERGSATVSFGELAKLNDVMSHEKK | soluble
MGSDKIHHHHHHLKAIKYGVTREHIREFKVALTDGKVYKFGSKSVKSSSGYSLNDLIIGSEGTLGVITEAVLRLYPRPKHALNAIIPFPTLDDAIESVPAILASGVEYMGRKVLNLWEKYYDATFPIKEGDGFIILGIDSFTASDAEAQLAQALEAVKPFHALKETVLNAESDEAKTIWDAREKLLLAIQKSTPKMDEVDVSVPINKIPLVLHRIEELEKEEDMRIPNFGHAGDGNLHIYLCSDDMTDEEFAKKGDNVISELYKTAKSVDGNMSGEHGVGYARQNYYEDFYGKDYTDLLRKVKGLFDPKGILNPDKIFPLD | not soluble
MIITEQNMPEEKLQTLSLQVINGSELESGRAARCLFTQQGNVGHAPECHWSVQDRQQSIPAQAFTVILHDGTFCLRPQTAQLWLNQAKVTATSDLIQLRQGDEIQIGRLMVRVHLNRGDIPHYDEEMATPETIVTNRDMLTDTLLSTEGAPHYPGMTHRHQLADTVVNGFSADPLQALQSESLITTGDPLSGIAAVRPSAPLSDPASNGGINTPFMDLPPIYASPGDHNDDISAAEMAQRHLAVTPLLRGLGGSLTVSNSDDADDFLEEAGRTLQAAIKGLLDLQQQRNSLSDKHLRPLEDNPLRLNMDYATALDVMFAEGKSPVHLAAPAAVSESLRNVRHHEEANRAAIVESLRVLLDAFSPQNLLRRFVQYRRSHELRQPLDDAGAWQMYSHYYEELASDRQQGFEMLFNEVYAQVYDRVLREKQREPEA | soluble
MSLAKKILVTGAGGYIGRHVVSALLDAGQDVIASDLRLDGVDERATKVQANIFEPNDNLFEELGAPDVCLHMAWRDGFKHNSDNHMGDLSNHYRFLKHMLDSGLKQIAVMGTMHEVGYWEGAIDENTPCHPASMYGIAKNALREATLMLAKEYDATAQWIRAYYIVGDDAHGNSIFSKLLQAANDGKATFPFTTGKNKYDFIDVDELARQISAVVSQDAVDGVINCCTGEPMTLAERVERYIKENDLNIKLDYGAFPDRPYDSPGVWGDASKINKIMKEGHHHHHH | soluble
